According to publication PMC9352346:

Molecular target: GST-Smad4-linker-MH2
Experiment: GST pull-down, immunoblot band quantification
Settings: HEK293T cell lysate; n=3; read off a plot

other: relative amount of Arl15-AL-GFP pulled down: 1.1
Substance: Arl15-WT-GFP A86L
